Reference: patent US20100216693A1 (published 2010)

molecular target: T1, Human insulin (Actrapid) (human); experiment: SPR, immobilized insulin
T1 construct: On the chip it was coupled through the N-terminus (amine coupling) or the C-terminus (surface thiol coupling); also called free insulin; immobilized insulin
T1 sequence (chain, as listed by the source, chain 1 of 2): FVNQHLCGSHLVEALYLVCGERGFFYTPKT
T1 sequence (chain, as listed by the source, chain 2 of 2): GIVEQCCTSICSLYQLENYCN

| Binder | binding result |
| --- | --- |
| EAEDLQVGQVALGGGPGAGSLQPLALEGSLQ [C-peptide variant Glu11-Ala] | no binding |
| EAEDLQVGQVELGGGPGAGSLQPLALAGSLQ (also called Glu27Ala C-peptide analogue) [C-peptide variant Glu27-Ala] | no binding |
| EAADLQVGQVALGGGPGAGSLQPLALAGSLQ [C-peptide variant with Glu3, 11 and 27 all exchanged for Ala] | no binding |
